This passage reports fold increase of the DSP-His signal on HEK293T cells with ectopic ENG against cells without results from paper PMC11910139.

For this test, the target named is ENG-HA (endoglin, HA-tagged, ectopically expressed) (UniProt P17813). The test can be described thus: flow cytometry on cells; cells (HEK293T with or without ENG overexpression, DPSCs with or without ENG knockdown or anti-ENG pretreatment, HUVECs) incubated with His-tagged DSP (0.5 μg/ml) or BSA at 37 °C for 1 h; detected with anti-His-tag mAb-Alexa Fluor 488 and PE anti-human ENG antibody. Background: A flow cytometer gives signals particle by particle.
UniProt P17813, sequence (P17813 26-658): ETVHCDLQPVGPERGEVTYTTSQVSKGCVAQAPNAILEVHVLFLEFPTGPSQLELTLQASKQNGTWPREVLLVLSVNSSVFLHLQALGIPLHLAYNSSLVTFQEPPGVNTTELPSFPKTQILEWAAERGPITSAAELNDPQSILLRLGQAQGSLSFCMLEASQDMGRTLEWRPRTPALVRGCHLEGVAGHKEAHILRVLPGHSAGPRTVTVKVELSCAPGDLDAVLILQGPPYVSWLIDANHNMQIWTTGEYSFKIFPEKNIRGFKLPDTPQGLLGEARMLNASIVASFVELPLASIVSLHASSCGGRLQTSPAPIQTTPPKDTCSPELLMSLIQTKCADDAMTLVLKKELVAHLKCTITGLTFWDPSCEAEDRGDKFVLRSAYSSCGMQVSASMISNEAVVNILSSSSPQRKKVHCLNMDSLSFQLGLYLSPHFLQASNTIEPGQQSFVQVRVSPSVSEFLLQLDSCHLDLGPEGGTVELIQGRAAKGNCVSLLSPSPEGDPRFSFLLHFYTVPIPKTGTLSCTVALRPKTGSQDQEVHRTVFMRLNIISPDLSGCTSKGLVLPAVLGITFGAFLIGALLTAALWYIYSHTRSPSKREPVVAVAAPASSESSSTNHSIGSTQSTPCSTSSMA

For the substance “recombinant DSP-His protein (domain or fragment)”, the fold increase of the DSP-His signal on HEK293T cells with ectopic ENG against cells without came to 7.5 fold.
